# Experimental data as given in paper PMC9482650, “Quantitative fragmentomics allow affinity mapping of interactomes” (Nature Communications, 2022).
# Assays:
# Test in all cases: holdup assay
# Settings in all cases: plain residues with an end cap or a label only (N-terminal biotin on a linker: (peg)3)
# PDZD2_3, O15018 = target: T1, PDZD2_3, O15018
# T1 sequence (O15018 581-682, limits assumed, looked up): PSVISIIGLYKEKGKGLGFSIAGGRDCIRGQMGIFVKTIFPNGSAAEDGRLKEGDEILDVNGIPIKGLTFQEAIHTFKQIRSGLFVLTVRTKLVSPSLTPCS
# SHROOM4, Q9ULL8 = target: T2, SHROOM4, Q9ULL8
# T2 sequence (Q9ULL8 5-102, limits assumed, looked up): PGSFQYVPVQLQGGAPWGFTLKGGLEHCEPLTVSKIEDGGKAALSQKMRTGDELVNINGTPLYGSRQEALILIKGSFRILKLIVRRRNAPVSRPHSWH
# APBA3_2, O96018 = target: T3, APBA3_2, O96018
# T3 sequence (O96018 480-570, limits assumed, looked up): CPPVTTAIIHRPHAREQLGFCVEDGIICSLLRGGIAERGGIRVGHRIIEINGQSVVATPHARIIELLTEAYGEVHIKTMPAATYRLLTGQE
# MAGI3_5, Q5TCQ9 = target: MAGI3_5, Q5TCQ9
# Chain of MAGI3_5, Q5TCQ9 (Q5TCQ9 847-941): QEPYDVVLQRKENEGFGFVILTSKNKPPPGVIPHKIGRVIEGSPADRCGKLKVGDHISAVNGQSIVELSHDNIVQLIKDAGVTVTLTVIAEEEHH
# PDZD7_2, Q9H5P4 = target: T4, PDZD7_2, Q9H5P4
# T4 sequence (Q9H5P4 205-303, limits assumed, looked up): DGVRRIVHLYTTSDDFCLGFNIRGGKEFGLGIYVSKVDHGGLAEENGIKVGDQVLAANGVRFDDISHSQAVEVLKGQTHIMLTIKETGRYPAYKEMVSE
# SCRIB_4, Q14160 = target: SCRIB_4, Q14160
# Chain of SCRIB_4, Q14160 (Q14160 1095-1204): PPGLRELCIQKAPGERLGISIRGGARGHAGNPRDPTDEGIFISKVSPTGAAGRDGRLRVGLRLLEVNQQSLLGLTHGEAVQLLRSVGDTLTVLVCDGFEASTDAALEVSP
# PDZD2_4, O15018 = target: T5, PDZD2_4, O15018
# T5 sequence (O15018 723-823, limits assumed, looked up): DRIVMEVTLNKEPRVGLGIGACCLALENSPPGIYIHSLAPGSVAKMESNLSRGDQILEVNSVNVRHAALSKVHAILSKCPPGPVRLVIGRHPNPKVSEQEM
# LNX2_4, Q8N448 = target: T6, LNX2_4, Q8N448
# T6 sequence (Q8N448 595-690, limits assumed, looked up): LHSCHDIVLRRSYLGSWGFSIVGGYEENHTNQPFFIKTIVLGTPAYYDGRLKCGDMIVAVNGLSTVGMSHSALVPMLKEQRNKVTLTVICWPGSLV
# PDZD2_6, O15018 = target: T7, PDZD2_6, O15018
# T7 sequence (O15018 2745-2839, limits assumed, looked up): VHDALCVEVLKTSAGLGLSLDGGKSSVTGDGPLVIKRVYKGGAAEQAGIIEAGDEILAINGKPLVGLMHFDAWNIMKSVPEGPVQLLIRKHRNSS
# PDZD9, Q8IXQ8 = target: PDZD9, Q8IXQ8
# Chain of PDZD9, Q8IXQ8 (Q8IXQ8 23-120): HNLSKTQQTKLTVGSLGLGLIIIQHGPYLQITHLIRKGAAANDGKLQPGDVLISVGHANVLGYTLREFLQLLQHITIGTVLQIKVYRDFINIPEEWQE
# LNX2_1, Q8N448 = target: T8, LNX2_1, Q8N448
# T8 sequence (Q8N448 228-328, limits assumed, looked up): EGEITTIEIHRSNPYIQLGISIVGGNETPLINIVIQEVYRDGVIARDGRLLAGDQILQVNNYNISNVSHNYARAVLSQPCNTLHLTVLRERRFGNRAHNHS
# MAGI1_3, Q96QZ7 = target: MAGI1_3, Q96QZ7
# Chain of MAGI1_3, Q96QZ7 (Q96QZ7 638-725): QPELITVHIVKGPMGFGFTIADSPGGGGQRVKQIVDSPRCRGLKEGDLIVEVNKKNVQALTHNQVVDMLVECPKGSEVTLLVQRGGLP
# PDZD11, Q5EBL8 = target: T9, PDZD11, Q5EBL8
# T9 sequence (Q5EBL8 42-139, limits assumed, looked up): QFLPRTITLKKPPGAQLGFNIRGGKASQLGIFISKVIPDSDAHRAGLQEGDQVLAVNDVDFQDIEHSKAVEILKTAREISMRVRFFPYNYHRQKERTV
# PTPN13_5, Q12923 = target: T10, PTPN13_5, Q12923
# T10 sequence (Q12923 1877-1975, limits assumed, looked up): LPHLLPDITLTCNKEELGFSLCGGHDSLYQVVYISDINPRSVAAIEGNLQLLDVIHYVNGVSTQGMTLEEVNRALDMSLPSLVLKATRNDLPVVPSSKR
# PREX1_1, Q8TCU6 = target: PREX1_1, Q8TCU6
# Chain of PREX1_1, Q8TCU6 (Q8TCU6 608-718): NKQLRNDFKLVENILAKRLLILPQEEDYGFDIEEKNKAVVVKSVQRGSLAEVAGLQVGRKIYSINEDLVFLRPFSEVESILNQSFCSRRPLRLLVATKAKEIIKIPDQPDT
# TJP3_2, O95049 = target: T11, TJP3_2, O95049
# T11 sequence (O95049 190-282, limits assumed, looked up): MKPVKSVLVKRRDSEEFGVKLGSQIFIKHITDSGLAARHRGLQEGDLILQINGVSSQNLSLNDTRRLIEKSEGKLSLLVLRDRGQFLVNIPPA
# MLLT4, P55196 = target: T12, MLLT4, P55196
# T12 sequence (P55196 1002-1103, limits assumed, looked up): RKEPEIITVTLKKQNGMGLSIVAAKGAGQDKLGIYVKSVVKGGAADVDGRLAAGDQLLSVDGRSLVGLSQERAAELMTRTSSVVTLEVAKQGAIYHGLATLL
# SNTB2, Q13425 = target: T13, SNTB2, Q13425
# T13 sequence (Q13425 110-208, limits assumed, looked up): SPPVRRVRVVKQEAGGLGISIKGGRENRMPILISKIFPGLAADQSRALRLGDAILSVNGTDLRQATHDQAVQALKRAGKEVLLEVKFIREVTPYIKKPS
# MAST3, O60307 = target: MAST3, O60307
# Chain of MAST3, O60307 (O60307 945-1048): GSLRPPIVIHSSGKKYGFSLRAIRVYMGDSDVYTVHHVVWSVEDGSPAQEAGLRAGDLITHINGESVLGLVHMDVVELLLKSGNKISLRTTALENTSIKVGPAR
# PDZD2_5, O15018 = target: T14, PDZD2_5, O15018
# T14 sequence (O15018 2617-2716, limits assumed, looked up): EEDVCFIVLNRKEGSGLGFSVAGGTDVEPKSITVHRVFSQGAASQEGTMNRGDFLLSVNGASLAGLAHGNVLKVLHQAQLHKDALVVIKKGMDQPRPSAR
# NHERF2_1, Q15599 = target: NHERF2_1, Q15599
# Chain of NHERF2_1, Q15599 (Q15599 9-91): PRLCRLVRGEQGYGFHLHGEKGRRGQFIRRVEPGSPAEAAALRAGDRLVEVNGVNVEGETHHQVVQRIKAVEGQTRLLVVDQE
# MPDZ_13, O75970 = target: T15, MPDZ_13, O75970
# T15 sequence (O75970 1982-2070, limits assumed, looked up): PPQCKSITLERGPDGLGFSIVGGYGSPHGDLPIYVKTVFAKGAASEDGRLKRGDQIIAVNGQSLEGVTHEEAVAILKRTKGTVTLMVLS
binder,measurement,setting,value
"NLNSSEGVPDLLV [SARS-CoV-E, P59637]",pKd,"PDZD2_3, O15018",below the threshold
same,pKd,"SHROOM4, Q9ULL8",below the threshold
same,pKd,"APBA3_2, O96018",below the threshold
same,pKd,"MAGI3_5, Q5TCQ9",below the threshold
same,pKd,"PDZD7_2, Q9H5P4",below the threshold
same,pKd,"SCRIB_4, Q14160",below the threshold
same,pKd,"PDZD2_4, O15018",below the threshold
same,pKd,"LNX2_4, Q8N448",3.74
same,pKd,"PDZD2_6, O15018",4.26
same,pKd,"PDZD9, Q8IXQ8",below the threshold
same,pKd,"LNX2_1, Q8N448",below the threshold
same,pKd,"MAGI1_3, Q96QZ7",below the threshold
same,pKd,"PDZD11, Q5EBL8",below the threshold
same,pKd,"PTPN13_5, Q12923",below the threshold
same,pKd,"PREX1_1, Q8TCU6",below the threshold
same,pKd,"TJP3_2, O95049",below the threshold
same,pKd,"MLLT4, P55196",4.31
same,pKd,"SNTB2, Q13425",below the threshold
same,pKd,"MAST3, O60307",below the threshold
same,pKd,"PDZD2_5, O15018",below the threshold
same,pKd,"NHERF2_1, Q15599",below the threshold
same,pKd,"MPDZ_13, O75970",below the threshold
